Measurements as given in publication PMC2588524 (Nucleic Acids Research, 2008).

Legend:
[1] = target: T1, C-terminal domain of mouse Dnmt3a (residues 608-908) (mouse, UniProt O88508 608-908); test: co-purification
[2] = target: T1, C-terminal domain of mouse Dnmt3a …; test: AUC

T1 sequence (O88508 608-908): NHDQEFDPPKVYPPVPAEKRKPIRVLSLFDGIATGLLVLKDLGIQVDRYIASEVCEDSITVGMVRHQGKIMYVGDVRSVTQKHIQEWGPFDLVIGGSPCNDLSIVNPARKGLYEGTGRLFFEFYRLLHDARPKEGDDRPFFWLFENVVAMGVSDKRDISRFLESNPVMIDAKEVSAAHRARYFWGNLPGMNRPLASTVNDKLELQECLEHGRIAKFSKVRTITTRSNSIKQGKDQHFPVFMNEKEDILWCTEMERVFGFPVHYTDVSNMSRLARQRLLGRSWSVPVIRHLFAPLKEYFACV

B1: C-terminal domain of mouse Dnmt3L (residues 208-421) (domain or fragment, UniProt Q9CWR8 208-421, looked up)
chain: GPMEIYKTVSAWKRQPVRVLSLFRNIDKVLKSLGFLESGSGSGGGTLKYVEDVTNVVRRDVEKWGPFDLVYGSTQPLGSSCDRCPGWYMFQFHRILQYALPRQESQRPFFWIFMDNLLLTEDDQETTTRFLQTEAVTLQDVRGRDYQNAMRVWSNIPGLKSKHAPLTPKEEEYLQAQVRSRSKLDAPKVDLLVKNCLLPLREYFKYFSQNSLPL
stoichiometry N [1]: 1
stoichiometry N [2]: 1 2:2 (Dnmt3a-C:Dnmt3L-C)
